# Changes are numbered by the printed parent chain.
# T1: human MerTK (human, UniProt Q12866 21-999)
# T1 construct: endogenous receptor on cells; also called human MerTK endogenously expressed on SK-MEL-5 cells; MerTK on human macrophages
# T1 sequence: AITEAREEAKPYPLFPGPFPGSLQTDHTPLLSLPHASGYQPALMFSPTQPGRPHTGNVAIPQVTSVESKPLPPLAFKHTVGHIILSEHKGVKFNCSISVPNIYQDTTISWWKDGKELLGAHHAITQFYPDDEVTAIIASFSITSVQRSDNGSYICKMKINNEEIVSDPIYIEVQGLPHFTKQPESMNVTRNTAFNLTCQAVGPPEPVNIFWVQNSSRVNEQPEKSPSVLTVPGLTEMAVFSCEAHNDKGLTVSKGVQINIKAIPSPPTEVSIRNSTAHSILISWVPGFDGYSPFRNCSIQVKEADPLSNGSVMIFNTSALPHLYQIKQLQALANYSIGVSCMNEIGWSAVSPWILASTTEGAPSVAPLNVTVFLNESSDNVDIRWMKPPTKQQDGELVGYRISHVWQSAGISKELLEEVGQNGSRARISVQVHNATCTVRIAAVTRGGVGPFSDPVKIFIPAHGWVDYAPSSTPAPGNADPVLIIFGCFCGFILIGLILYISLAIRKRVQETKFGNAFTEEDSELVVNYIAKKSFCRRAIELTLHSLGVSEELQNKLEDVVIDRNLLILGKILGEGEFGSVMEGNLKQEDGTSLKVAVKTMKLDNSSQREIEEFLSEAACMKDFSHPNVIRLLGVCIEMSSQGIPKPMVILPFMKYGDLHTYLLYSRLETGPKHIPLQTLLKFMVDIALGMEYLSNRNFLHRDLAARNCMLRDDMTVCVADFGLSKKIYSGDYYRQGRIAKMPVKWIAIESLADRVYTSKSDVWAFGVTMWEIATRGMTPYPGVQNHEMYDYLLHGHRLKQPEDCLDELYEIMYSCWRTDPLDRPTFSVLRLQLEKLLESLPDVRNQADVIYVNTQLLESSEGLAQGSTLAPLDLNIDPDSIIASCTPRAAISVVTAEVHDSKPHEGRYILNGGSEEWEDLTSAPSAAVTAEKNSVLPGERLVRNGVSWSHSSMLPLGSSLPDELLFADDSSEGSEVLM
# T2: Recombinant human MerTK-human Fc Chimera protein (human, UniProt Q12866 26-499, limits assumed)
# T2 construct: bought construct; also called MerTK-Fc (R&D systems, Cat #391-MR-100)
# T2 sequence: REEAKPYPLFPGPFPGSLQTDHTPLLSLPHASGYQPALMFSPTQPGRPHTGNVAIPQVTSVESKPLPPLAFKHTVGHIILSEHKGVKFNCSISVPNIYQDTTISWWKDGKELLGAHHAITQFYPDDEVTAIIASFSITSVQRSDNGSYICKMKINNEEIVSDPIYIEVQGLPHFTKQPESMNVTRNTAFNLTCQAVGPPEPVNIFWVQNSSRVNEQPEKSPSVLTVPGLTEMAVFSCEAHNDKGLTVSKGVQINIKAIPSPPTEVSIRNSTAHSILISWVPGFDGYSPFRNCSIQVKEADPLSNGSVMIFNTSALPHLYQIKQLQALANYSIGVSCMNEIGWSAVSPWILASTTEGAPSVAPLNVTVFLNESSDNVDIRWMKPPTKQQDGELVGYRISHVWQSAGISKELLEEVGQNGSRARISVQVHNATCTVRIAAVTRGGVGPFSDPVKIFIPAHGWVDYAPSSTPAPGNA
# B1: MTK-206 (antibody, human IgG1, V domains shown)
# VH: QVQLQQSGAELARPGASVKMSCKASGYTFTSYTMHWVKQRPGQGLEWIGYINPSSGYIKNSQKFKDKATLTADKSSSTAYMQLSSLTSEDSAVYYCARTVYGYYGSSPDYWGQGTTLTVSS
# VL: DIQMTQSPSSLSASLGERVSLTCRASQDIGSNLNWLQQEPDGTIKRLIYATSSLESGVPKRFSGSRSGSDYSLTISSLESEDFVDYYCLQYDSSPWTFGGGTKLEIK
# B2: MTK-210 (antibody, human IgG1, V domains shown)
# VH: QVQLQQSGPELVKPGASVKISCKASDYEFSRSWMNWVKQRPGKGLEWIGRIYPGDGDTNYNGKFKGKATLTADKSSNTAYMQLNSLTSEDSAVYFCARKGGYYYSISNYFDYWGQGTTLTVSS
# VL: QIVLTQSPAIMSASPGVKVTMTCSASSSVSYMHWYQQKPGSSPRLLIYDTSNLASGVPVRFSGSGSGTSYSLTISRMEAEDAATYYCQQWSSYPPYTFGGGTKLEIK
# B3: MTK-215 (antibody, human IgG1, V domains shown)
# VH: EVQLVESGGGLVKPGGSLKLSCAASGFIFSDYGMHWVRQAPEKGLEWVAYISSGSSTIYYGDTVKGRFTISRDNAKNTLFLQMTSLRSEDTAMYYCAKGGRYGAMDYWGHGTSVTVSS
# VL: DIVLTQSPATLSVTPGDSVSLSCRASQSISNNLHWYQQKSHESPRLLIKNPSQSISGIPSRFGARGSGTDFTLIINSVETEDLGVYFCQQSNSWPFTFGSGTKLEIK
# B4: MTK-231 (antibody, human IgG1, V domains shown)
# VH: DVQLQESGPGLVKPSQSLSLTCSVTGYSITSGYYWNWIRQFPGNKLEWMGYISYDGTYNYHPSLKNRISITRDTSKNQFFLTLNSVTTEDTATFYCTRGGGYWGQGTSVTVSS
# VL: DVVMTQTPLSLPVSLGDQASISCRSSQSLVHSDGNTYLHWYLQKPGQSPKLLIYKVSNRFSGVPDRFSGSGSGTDFTLKISRLEAEDLGIYFCSQTTHIPLTFGSGTKLEIK
# B5: MTK-208 (antibody, human IgG1, V domains shown)
# VH: QVQLQQPGAELVVPGASVRLSCKASGYTFINYWMHWVKQRPGQGLEWIGEIDPSDSYANYNQKFKDKSTLSLDKSSSTAYMQLSSLTSEDSAVYYCARCDYYGRLDYWGQGTTLTVSS
# VL: QVVLTQSPAIMSASPGEKVTITCSASSSVSYMLWFQQKPGTSPKLWIYSTSNLASGVPARFSGSGSGTSYSLTISRLEAEDAATYYCQQRSSYPPITFGAGTKLELK
# B6: MTK-212 (antibody, human IgG1, V domains shown)
# VH: QVQLQQSGPELVKPGASVKISCKASGYAFSSSWVNWVKQRPGKGLEWIGRIYPGDGDSNYNGNFKGKATLTADKSSNTAYLQLSSLTSEDSAVYFCARKSHFIYYTLDYWGQGTPVTVSS
# VL: DIVMTQSHKFKSTSVGDRVSIACKASQDVGTSVAWYQQKPGKSPKLLIYWASSRHTGVPDRFTGSGSGTDFTLTISNVQSEDLTDYFCQQYSTYPYTFGGGTKLEIK
# B7: MTK-216 (antibody, human IgG1, V domains shown)
# VH: EVQLVESGGGLVKPGGSLKLSCAASGFTFSDYGMHWVRQAPEKGLEWVAFISSGSTTIYYADTVKGRFTISRDNAKNTLILQMTSLRSEDTAIYYCTRGGFHLDYWGQGTTLTVSS
# VL: SIMMTQSPSSLAVSAGEKVTMGCKSSQSVLYSANQQNYLAWYQQKPGQSLKLLIYWASTRESGVPDRFTGSGSGTDFTLTISSVQAEDLAVYYCHQYFSSWTFGGGTKLEIK
# B8: MTK-202 (antibody, human IgG1, V domains shown)
# VH: EVQLVESGGGLVKPGGSLKLSCAASGFTFSDFGMHWVRQVPEKGLEWVAFISGGSNTIYYTDTVKGRFTISRDNAKNTLFLQMTSLRSEDTAMYYCVRNGNSFAYWGQGTLVTVSA
# VL: B7 VL with S1N, G22N, A33S, Q36K, L50P, S83N, V84I, V91I, S99F
# B9: MTK-204 (antibody, human IgG1, V domains shown)
# VH: B7 VH with F50Y, S55T, T56S, A61E, I80F, I93M, T97A, F101L, H102L, L103F
# VL: B7 VL with S1N, G22S, A33S, Q36K, L50P, Y55Q, G74E, S82R
# B10: MTK-219 (antibody, human IgG1, V domains shown)
# VH: QVQLQQSGADLMKPGASVKLSCKATGNTFTGYWIEWVKQRPGHGLEWIGEILTGSGSTNYNERFKGKATFTADTSSNTAYMQLSSLTTEDSAIYYCAGSYFTNSWFPYWGQGSLVTVSA
# VL: DIVLTQSPASLAVSLGQRATISCRASESVDSYGNSFMHWYQQKPGQPPKLLIYRAYTLESGIPARFSGSGSRTDFTLTINPVEADDVATYYCQQSNEDPRTFGGGTKLEIK
# B11: MTK-222 (antibody, human IgG1, V domains shown)
# VH: B10 VH with N27Y, T58S, R63K, T74S, Y80F, F101Y, T102S
# VL: B10 VL with A9V, N34S, Y56S, T57S, A84T
# Target: T1, human MerTK
# Test: FACS, SK-MEL-5 cells, 10 ug/ml
# Experimental: To determine whether recombinant anti-human MerTK antibodies of the present disclosure bind to human MerTK endogenously expressed on SK-MEL-5 cells and CHO cells overexpressing mouse MerTK (CHO-muMerTK OE cells), as compared to A375 and parental CHO cells as negative controls, the following experiments were performed. SK-MEL-5 cells, A375 cells, CHO-muMerTK OE cells, and CHO parental cells were plated at 100,000 cells/well. Anti-MerTK antibodies were added to the cells at 10 μg/ml. After 60 minutes on ice, cells were washed and then stained with PE-conjugated goat anti-human IgG antibody (Southern Biotech Cat #2040-09, Birmingham, AL) in the presence of Fc block solution on ice for 30 minutes, and then washed twice with cold FACS buffer (2% FBS in PBS). Mouse anti-human MerTK-PE conjugated (Biolegend, Clone 590H11G1E3) or anti-mouse MerTK-PE conjugated (ThermoFisher, Clone DS5MMER) antibodies were used as positive controls. Stained cells were acquired on a BD FACS Canto II cytometer and the mean fluorescence intensity (MFI) was calculated with FlowJo.
row,Binder,MFI [MFI]
1,B1,3270
2,B2,29900
3,B3,19000
4,B4,39000
5,B5,14100
6,B6,8080
7,B7,43300
8,B8,46100
9,B9,33800
10,B10,26800
11,B11,27500

# Target: T2, Recombinant human MerTK-human Fc …
# Test: blocking ELISA, Gas6-His on MerTK-Fc, Ab 66.6 nM, isotype=100%
# Experimental: (§1) Briefly, rabbit anti-human IgG antibody (Jackson ImmunoResearch, Cat #309-005-008) was coated at 2 μg/ml onto high-protein binding plates at 4° C. overnight. After washing with 0.05% Tween20 in PBS three times, 5% BSA in PBS was added for 1 hour. Recombinant human MerTK-human Fe Chimera protein (R&D systems, Cat #391-MR-100) was added at 2 μg/ml for 1 hour and plates were washed before the addition of 40 μl of anti-MerTK hybridoma supernatants and 40 μl of His tag-conjugated recombinant Gas6 (R&D systems, Cat #885-GSB-050) at 3 μg/ml or His tag-conjugated recombinant ProS (R&D systems, Cat #9489-PS-100) at 20 μg/ml. After a further incubation for 1 hour, plates were washed and incubated for 1 hour with HRP-conjugated anti-6×His tagged antibody (Abcam, Cambridge, MA, Cat #ab1187). Plates were then washed and an HRP substrate, TMB, was added to develop the plates. The reaction was stopped by adding 50 μl 2N H₂SO₄ and the OD was measured using a spectrophotometer (BioTek).
# (§2) Anti-MerTK antibodies were titrated to a final concentration from 66.6 nM to 4 pM and tested against anti-human MerTK antibody M6 (disclosed in WO2016/106221) or isotype control antibody.
row,Binder,Percent Gas6 ligand binding [%]
1,B1,103
2,B2,114
3,B3,110
4,B4,116
5,B5,107
6,B6,122
7,B7,104
8,B8,101
9,B9,121
10,B10,106
11,B11,105

# Target: T2, Recombinant human MerTK-human Fc …
# Test: blocking ELISA, ProS-His on MerTK-Fc, Ab 66.6 nM, isotype=100%
# Experimental: as §1, §2
row,Binder,Percent ProS ligand binding [%]
1,B1,132
2,B2,116
3,B3,81.6
4,B4,152
5,B5,71.7
6,B6,45.8
7,B7,72.8
8,B8,53.4
9,B9,101
10,B10,100
11,B11,88.2

# From US20240294650A1 (Alector, published 2024)
